Assay [1] deals with T1, FcγRIIa H (human, UniProt P12318 34-217).
T1 construct: extracellular domain; also called FcγRIIa type H; 2aH
T1 sequence (looked up): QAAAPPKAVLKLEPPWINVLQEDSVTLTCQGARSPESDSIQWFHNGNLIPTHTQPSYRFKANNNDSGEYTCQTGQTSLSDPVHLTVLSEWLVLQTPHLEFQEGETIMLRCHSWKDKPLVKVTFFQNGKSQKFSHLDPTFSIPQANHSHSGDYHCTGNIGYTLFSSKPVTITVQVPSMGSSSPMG
Briefly: ratio of He/Con_2aH to He/Con_2b (FcγRIIb); SPR.

For a further assay, the target named is T2, FcγRIIb (human, UniProt P31994 43-217).
T2 construct: extracellular domain; also called 2b; FcgRIIb
T2 sequence (looked up): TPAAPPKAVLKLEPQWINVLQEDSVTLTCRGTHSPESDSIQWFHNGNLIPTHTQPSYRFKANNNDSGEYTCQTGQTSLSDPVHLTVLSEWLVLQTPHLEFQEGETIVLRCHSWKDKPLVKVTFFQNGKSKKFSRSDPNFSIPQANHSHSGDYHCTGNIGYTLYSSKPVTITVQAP
Briefly: SPR (Biacore), captured antibody, FcγR as analyte; GpH7-A5/GpH7-B3/GpL16-k0 = 100.

In assay [2] the target is T1, FcγRIIa H. The assay is described as above.

B1: GpH7-A5/GpH7-B3 variant Q295_12R/GpL16-k0 (antibody, human IgG1, kappa)
heavy 1: not shown
heavy 2: not shown
light: DIVMTQSPLSLPVTPGEPASISCQASESLVHSNRNTYLHWYLQKPGQSPQLLIYKVSNRFSGVPDRFSGSGSGTDFTLKISRVEAEDVGVYYCSQNTHVPPTFGQGTKVEIERTVAAPSVFIFPPSDEQLKSGTASVVCLLNNFYPREAKVQWKVDNALQSGNSQESVTEQDSKDSTYSLSSTLTLSKADYEKHKVYACEVTHQGLSSPVTKSFNRGEC
notes: Heterodimerized anti-glypican-3 IgG1 (He Ab); mutation in the B3 H chain only; also called He Ab
Regarding B1, the “He_2aH/2b (IIaH/IIb ratio)” value with FcγRIIa H [1] was 1.29. For the same molecule, in the assay with FcγRIIb, the “He/Con_2b (relative binding)” value turned out to be 65.2%. Further, the “He/Con_2aH (relative binding)” value in the assay with FcγRIIa H [2] stood at 84.1%.

B2: GpH7-A5/GpH7-B3 variant S298_03V/GpL16-k0 (antibody, human IgG1, kappa)
heavy 1: not shown
heavy 2: not shown
light: DIVMTQSPLSLPVTPGEPASISCQASESLVHSNRNTYLHWYLQKPGQSPQLLIYKVSNRFSGVPDRFSGSGSGTDFTLKISRVEAEDVGVYYCSQNTHVPPTFGQGTKVEIERTVAAPSVFIFPPSDEQLKSGTASVVCLLNNFYPREAKVQWKVDNALQSGNSQESVTEQDSKDSTYSLSSTLTLSKADYEKHKVYACEVTHQGLSSPVTKSFNRGEC
notes: as for B1
Regarding B2, the “He_2aH/2b (IIaH/IIb ratio)” value in the assay with FcγRIIa H [1] turned out to be 1.32. In the assay with FcγRIIb, the “He/Con_2b (relative binding)” value is 64.5%. In addition, the “He/Con_2aH (relative binding)” value in the assay with FcγRIIa H [2] is 85.1%.

B3: GpH7-A5/GpH7-B3 variant Q295_20W/GpL16-k0 (antibody, human IgG1, kappa)
heavy 1: not shown
heavy 2: not shown
light: DIVMTQSPLSLPVTPGEPASISCQASESLVHSNRNTYLHWYLQKPGQSPQLLIYKVSNRFSGVPDRFSGSGSGTDFTLKISRVEAEDVGVYYCSQNTHVPPTFGQGTKVEIERTVAAPSVFIFPPSDEQLKSGTASVVCLLNNFYPREAKVQWKVDNALQSGNSQESVTEQDSKDSTYSLSSTLTLSKADYEKHKVYACEVTHQGLSSPVTKSFNRGEC
notes: as for B1
In the case of B3, in the assay with FcγRIIa H [1], the “He_2aH/2b (IIaH/IIb ratio)” value turned out to be 1.25. Moreover, the “He/Con_2b (relative binding)” value with FcγRIIb came out at 44.4%. Besides, the “He/Con_2aH (relative binding)” value with FcγRIIa H [2] was 55.6%.

B4: GpH7-A5/GpH7-B3 variant S298_16H/GpL16-k0 (antibody, human IgG1, kappa)
heavy 1: not shown
heavy 2: not shown
light: DIVMTQSPLSLPVTPGEPASISCQASESLVHSNRNTYLHWYLQKPGQSPQLLIYKVSNRFSGVPDRFSGSGSGTDFTLKISRVEAEDVGVYYCSQNTHVPPTFGQGTKVEIERTVAAPSVFIFPPSDEQLKSGTASVVCLLNNFYPREAKVQWKVDNALQSGNSQESVTEQDSKDSTYSLSSTLTLSKADYEKHKVYACEVTHQGLSSPVTKSFNRGEC
notes: as for B1
Turning to B4, the “He_2aH/2b (IIaH/IIb ratio)” value with FcγRIIa H [1] was determined as 1.29. For the same molecule, the “He/Con_2b (relative binding)” value in the assay with FcγRIIb was 63.5%. For the same molecule, the “He/Con_2aH (relative binding)” value with FcγRIIa H [2] was 82.1%.

B5: GpH7-A5/GpH7-B3 variant S298_19Q/GpL16-k0 (antibody, human IgG1, kappa)
heavy 1: not shown
heavy 2: not shown
light: DIVMTQSPLSLPVTPGEPASISCQASESLVHSNRNTYLHWYLQKPGQSPQLLIYKVSNRFSGVPDRFSGSGSGTDFTLKISRVEAEDVGVYYCSQNTHVPPTFGQGTKVEIERTVAAPSVFIFPPSDEQLKSGTASVVCLLNNFYPREAKVQWKVDNALQSGNSQESVTEQDSKDSTYSLSSTLTLSKADYEKHKVYACEVTHQGLSSPVTKSFNRGEC
notes: as for B1
Take B5: the “He_2aH/2b (IIaH/IIb ratio)” value with FcγRIIa H [1] came to 1.24. Also, the “He/Con_2b (relative binding)” value in the assay with FcγRIIb is 73.3%. Besides, the “He/Con_2aH (relative binding)” value in the assay with FcγRIIa H [2] stood at 91%.

B6: GpH7-A5/GpH7-B3 variant Q295_16H/GpL16-k0 (antibody, human IgG1, kappa)
heavy 1: not shown
heavy 2: not shown
light: DIVMTQSPLSLPVTPGEPASISCQASESLVHSNRNTYLHWYLQKPGQSPQLLIYKVSNRFSGVPDRFSGSGSGTDFTLKISRVEAEDVGVYYCSQNTHVPPTFGQGTKVEIERTVAAPSVFIFPPSDEQLKSGTASVVCLLNNFYPREAKVQWKVDNALQSGNSQESVTEQDSKDSTYSLSSTLTLSKADYEKHKVYACEVTHQGLSSPVTKSFNRGEC
notes: as for B1
As for B6, in the assay with FcγRIIa H [1], the “He_2aH/2b (IIaH/IIb ratio)” value amounted to 1.25. For the same molecule, the “He/Con_2b (relative binding)” value in the assay with FcγRIIb came out at 62.7%. Moreover, the “He/Con_2aH (relative binding)” value in the assay with FcγRIIa H [2] stood at 78.6%.

B7: GpH7-A5/GpH7-B3 variant S298_18N/GpL16-k0 (antibody, human IgG1, kappa)
heavy 1: not shown
heavy 2: not shown
light: DIVMTQSPLSLPVTPGEPASISCQASESLVHSNRNTYLHWYLQKPGQSPQLLIYKVSNRFSGVPDRFSGSGSGTDFTLKISRVEAEDVGVYYCSQNTHVPPTFGQGTKVEIERTVAAPSVFIFPPSDEQLKSGTASVVCLLNNFYPREAKVQWKVDNALQSGNSQESVTEQDSKDSTYSLSSTLTLSKADYEKHKVYACEVTHQGLSSPVTKSFNRGEC
notes: as for B1
Take B7: the “He_2aH/2b (IIaH/IIb ratio)” value with FcγRIIa H [1] amounted to 1.28. The “He/Con_2b (relative binding)” value in the assay with FcγRIIb amounted to 48.1%. In addition, the “He/Con_2aH (relative binding)” value in the assay with FcγRIIa H [2] came out at 61.6%.

B8: GpH7-A5/GpH7-B3 variant S298_20W/GpL16-k0 (antibody, human IgG1, kappa)
heavy 1: not shown
heavy 2: not shown
light: DIVMTQSPLSLPVTPGEPASISCQASESLVHSNRNTYLHWYLQKPGQSPQLLIYKVSNRFSGVPDRFSGSGSGTDFTLKISRVEAEDVGVYYCSQNTHVPPTFGQGTKVEIERTVAAPSVFIFPPSDEQLKSGTASVVCLLNNFYPREAKVQWKVDNALQSGNSQESVTEQDSKDSTYSLSSTLTLSKADYEKHKVYACEVTHQGLSSPVTKSFNRGEC
notes: as for B1
For B8, in the assay with FcγRIIa H [1], the “He_2aH/2b (IIaH/IIb ratio)” value turned out to be 1.21. For the same molecule, the “He/Con_2b (relative binding)” value with FcγRIIb was 41.1%. In the assay with FcγRIIa H [2], the “He/Con_2aH (relative binding)” value amounted to 49.9%.

B9: GpH7-A5/GpH7-B3 variant Y300_01G/GpL16-k0 (antibody, human IgG1, kappa)
heavy 1: not shown
heavy 2: not shown
light: DIVMTQSPLSLPVTPGEPASISCQASESLVHSNRNTYLHWYLQKPGQSPQLLIYKVSNRFSGVPDRFSGSGSGTDFTLKISRVEAEDVGVYYCSQNTHVPPTFGQGTKVEIERTVAAPSVFIFPPSDEQLKSGTASVVCLLNNFYPREAKVQWKVDNALQSGNSQESVTEQDSKDSTYSLSSTLTLSKADYEKHKVYACEVTHQGLSSPVTKSFNRGEC
notes: as for B1
With B9, the “He_2aH/2b (IIaH/IIb ratio)” value with FcγRIIa H [1] amounted to 1.54. Further, the “He/Con_2b (relative binding)” value with FcγRIIb turned out to be 48.4%. Besides, the “He/Con_2aH (relative binding)” value in the assay with FcγRIIa H [2] came to 74.4%.

B10: GpH7-A5/GpH7-B3 variant S298_14T/GpL16-k0 (antibody, human IgG1, kappa)
heavy 1: not shown
heavy 2: not shown
light: DIVMTQSPLSLPVTPGEPASISCQASESLVHSNRNTYLHWYLQKPGQSPQLLIYKVSNRFSGVPDRFSGSGSGTDFTLKISRVEAEDVGVYYCSQNTHVPPTFGQGTKVEIERTVAAPSVFIFPPSDEQLKSGTASVVCLLNNFYPREAKVQWKVDNALQSGNSQESVTEQDSKDSTYSLSSTLTLSKADYEKHKVYACEVTHQGLSSPVTKSFNRGEC
notes: as for B1
As to B10, in the assay with FcγRIIa H [1], the “He_2aH/2b (IIaH/IIb ratio)” value worked out at 1.26. Also, the “He/Con_2b (relative binding)” value with FcγRIIb worked out at 77.9%. Besides, the “He/Con_2aH (relative binding)” value with FcγRIIa H [2] stood at 98.5%.

B11: GpH7-A5/GpH7-B3 variant S298_10E/GpL16-k0 (antibody, human IgG1, kappa)
heavy 1: not shown
heavy 2: not shown
light: DIVMTQSPLSLPVTPGEPASISCQASESLVHSNRNTYLHWYLQKPGQSPQLLIYKVSNRFSGVPDRFSGSGSGTDFTLKISRVEAEDVGVYYCSQNTHVPPTFGQGTKVEIERTVAAPSVFIFPPSDEQLKSGTASVVCLLNNFYPREAKVQWKVDNALQSGNSQESVTEQDSKDSTYSLSSTLTLSKADYEKHKVYACEVTHQGLSSPVTKSFNRGEC
notes: as for B1
On to B11, for which the “He_2aH/2b (IIaH/IIb ratio)” value in the assay with FcγRIIa H [1] stood at 1.22. Also, in the assay with FcγRIIb, the “He/Con_2b (relative binding)” value was 47.6%. In addition, the “He/Con_2aH (relative binding)” value in the assay with FcγRIIa H [2] came out at 58%.

B12: GpH7-A5/GpH7-B3 variant Q295_13S/GpL16-k0 (antibody, human IgG1, kappa)
heavy 1: not shown
heavy 2: not shown
light: DIVMTQSPLSLPVTPGEPASISCQASESLVHSNRNTYLHWYLQKPGQSPQLLIYKVSNRFSGVPDRFSGSGSGTDFTLKISRVEAEDVGVYYCSQNTHVPPTFGQGTKVEIERTVAAPSVFIFPPSDEQLKSGTASVVCLLNNFYPREAKVQWKVDNALQSGNSQESVTEQDSKDSTYSLSSTLTLSKADYEKHKVYACEVTHQGLSSPVTKSFNRGEC
notes: as for B1
As for B12, the “He_2aH/2b (IIaH/IIb ratio)” value with FcγRIIa H [1] came to 1.22. The “He/Con_2b (relative binding)” value with FcγRIIb turned out to be 56.9%. In addition, the “He/Con_2aH (relative binding)” value with FcγRIIa H [2] amounted to 69.4%.

B13: GpH7-A5/GpH7-B3 variant S298_07I/GpL16-k0 (antibody, human IgG1, kappa)
heavy 1: not shown
heavy 2: not shown
light: DIVMTQSPLSLPVTPGEPASISCQASESLVHSNRNTYLHWYLQKPGQSPQLLIYKVSNRFSGVPDRFSGSGSGTDFTLKISRVEAEDVGVYYCSQNTHVPPTFGQGTKVEIERTVAAPSVFIFPPSDEQLKSGTASVVCLLNNFYPREAKVQWKVDNALQSGNSQESVTEQDSKDSTYSLSSTLTLSKADYEKHKVYACEVTHQGLSSPVTKSFNRGEC
notes: as for B1
In the case of B13, the “He_2aH/2b (IIaH/IIb ratio)” value with FcγRIIa H [1] worked out at 1.23. Besides, in the assay with FcγRIIb, the “He/Con_2b (relative binding)” value was 70.6%. Also, in the assay with FcγRIIa H [2], the “He/Con_2aH (relative binding)” value came out at 86.9%.

Values taken from patent publication US20150344570A1 (published 2015).
